Measurements reported in US20230071321A1 (VIB VZW, published 2023).
Read-outs that look alike come from different tables or passages of the source.

Legend:
[1] = molecular target: T1, hCXCR4Rho1D4 (full-length human CXCR4 receptor with C-terminal Rho1D4 tag) (human, UniProt P61072 6-352 (Pan troglodytes entry)); experiment: cell-based or functional assay
[2] = molecular target: T1, hCXCR4Rho1D4 (full-length human CXCR4 …); experiment: cell-based or functional assay; remark: listed apart in the source
[3] = molecular target: T1, hCXCR4Rho1D4 (full-length human CXCR4 …); experiment: control Nanobody co-expressed with hCXCR4Rho1D4 in P. pastoris; receptor level read by anti-Rho1D4 immunoblot
Source text: Equal amounts of total membrane protein (determined by a BCA assay) of induced P. pastoris GS115 clones, expressing only the human CXCR4 receptor, or in combination with a anti-hCXCR4 Nanobody (NbCA4142), or in combination with the negative control Nanobody (NbCA4910), were run on a 12% SDS-PAGE gel and blotted on a nitrocellulose membrane. The blot was developed with a primary mouse anti-Rho1D4 monoclonal antibody and a secondary Dylight (800 nm) goat anti-mouse IgG on an LI-COR odyssey system. For the hCXCR4-specific Nb co-expressing clone we detect more of the anti-Rho1D4 immunoreactive membrane protein band compared to the GS115hCXCR4 clone without Nb co-expression. […] Exact quantification has been calculated by the Odyssey software by measuring relative fluorescent signals (Table 4). It can, thus, be concluded that the increase in receptor expression can be attributed to the Nanobody-specific interaction with the receptor.
Protein samples were analyzed by SDS-poly-acrylamide gel electrophoresis, according to the Laemmli (Laemmli et al., 1970, Nature, 227:680) or the Tricine method (Schagger et al., 2006, Nat. Protoc. 1:16-22). Before loading on gel, the samples were mixed with 5×Laemmli (60 mM Tris-HCl pH 6,8; 2% SDS, 10% glycerol, 5% β-ME; 0.01% bromophenol blue) and heated for 10 minutes at 95° C. (only the ECM samples, not the membrane protein preparations). […]

T1 sequence (P61072 other isoform, or with tags, fused parts or gaps limits assumed): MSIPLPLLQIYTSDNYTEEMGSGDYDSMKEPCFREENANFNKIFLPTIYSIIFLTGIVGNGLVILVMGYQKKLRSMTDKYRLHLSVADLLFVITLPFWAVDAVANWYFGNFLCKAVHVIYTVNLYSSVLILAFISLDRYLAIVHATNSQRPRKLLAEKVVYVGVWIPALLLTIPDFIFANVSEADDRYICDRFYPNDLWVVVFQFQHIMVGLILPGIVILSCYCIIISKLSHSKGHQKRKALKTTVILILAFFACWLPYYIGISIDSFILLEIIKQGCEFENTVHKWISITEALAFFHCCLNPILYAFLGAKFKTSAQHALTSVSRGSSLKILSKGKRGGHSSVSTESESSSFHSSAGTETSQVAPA

B1: Nanobody CA4140 (VHH)
VHH: QVQLQESGGGLVQPGGSLRLSCAASGSIFSINAMGWYRQAPGKQRELVAAITSGGSTNYADSVKGRFTISRDNAENTVYLQMNNLKPEDTAVYSCNAEGTSGSSRYRRRYEYWGKGTQVTVSS
Factor improvement (relative hCXCR4 expression, anti-Rho1D4 immunoblot fluorescence) [1]: 2.8 fold

B2: Nanobody CA4500 (VHH)
VHH: QVQLQESGGGLVQAGGSLRLSCAASGSTSGIIAMGWYRQAPGKQRELVARISSGSSTNYADSVKGRFTVSRDNAKNTVYLQMNSLKPEDTAVYYCNAVRRGYRNDYNSWGQGTQVTVSS
Factor improvement (relative hCXCR4 expression, anti-Rho1D4 immunoblot fluorescence) [1]: 1.3 fold

B3: Nanobody CA4143 (VHH)
VHH: QVQLQESGGGLVQPGGSLRLSCAASGFTFSSYAMSWVRQAPGKGLEWVSTINSGGRSANYADSVKGRLTISRDNAKNTLHLQMNSLKPEDTALYYCARPRSVSRNYVPLGYDYLGQGTQVTVSS
Factor improvement (relative hCXCR4 expression, anti-Rho1D4 immunoblot fluorescence) [1]: 3 fold

B4: Nanobody CA4910 (VHH)
VHH: QVQLVESGGGLVQPGGSLRLSCAASGSFRSIVSMAWYRQAPGKQRELVASSNSGGSTNYADSVKGRFTISRDNAKNTVYLQMNSLKPEDTAVYWCNVQNRLPGFDAFSGRSIAETYWGQGTQVTVSS
notes: It was co-expressed in P. pastoris as a control; also called NbCA4910; Nb4910
Factor improvement (relative hCXCR4 expression, anti-Rho1D4 immunoblot fluorescence), clone 1 [2]: 0.4 fold | Factor improvement (relative hCXCR4 expression, anti-Rho1D4 immunoblot fluorescence), clone 2 [2]: 1.1 fold | Factor improvement (relative hCXCR4 expression, anti-Rho1D4 immunoblot fluorescence), clone 3 [2]: 1.2 fold | binding result [3]: no binding

B5: Nanobody CA4142 (VHH)
VHH: QVQLQESGGGLVRTGGSLRLSCAGSGSFFSINPMGWYRQAPGQQRELVATITGSGSTNYADSVKGRFTISRDNAKNTLYLQMNSLKPEDTAVYYCNAGYFDRIGRRYDRWGQGTQVTVSS
Factor improvement (relative hCXCR4 expression, anti-Rho1D4 immunoblot fluorescence) [1]: 2.6 fold | Factor improvement (relative hCXCR4 expression, anti-Rho1D4 immunoblot fluorescence) [2]: 1.9 fold
